Data taken from US20220251204A1 (AstraZeneca / MedImmune, published 2022).

Columns and labels:
[1] = biological target: T1, human OX40 expressed on cells (human, UniProt P43489 29-277); test: cell-based or functional assay
T1 sequence: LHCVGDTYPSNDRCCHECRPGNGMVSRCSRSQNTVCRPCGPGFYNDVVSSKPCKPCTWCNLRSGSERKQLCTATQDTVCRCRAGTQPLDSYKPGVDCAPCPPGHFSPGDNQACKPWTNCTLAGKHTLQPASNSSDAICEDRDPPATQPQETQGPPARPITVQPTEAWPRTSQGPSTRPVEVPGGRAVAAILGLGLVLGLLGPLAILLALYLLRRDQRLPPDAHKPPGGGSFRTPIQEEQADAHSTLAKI

[2] = biological target: T2, human PD-1 expressed on cells (human, UniProt Q15116 25-288); test: cell-based or functional assay
[3] = biological target: T3, human CTLA-4 expressed on cells (human, UniProt P16410 36-223); test: cell-based or functional assay
T3 sequence: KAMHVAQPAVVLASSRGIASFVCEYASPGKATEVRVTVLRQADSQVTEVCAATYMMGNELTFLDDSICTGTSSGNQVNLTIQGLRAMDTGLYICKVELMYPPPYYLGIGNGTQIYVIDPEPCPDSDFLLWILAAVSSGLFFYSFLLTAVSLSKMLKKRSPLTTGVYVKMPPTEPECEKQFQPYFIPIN

cynomolgus TIM3 = biological target: T4, cynomolgus TIM3 (cynomolgus, UniProt A0A2K5U3G7 22-195); test: SPR, BIAcore T200; antibody captured on mouse anti-huIgG-Fab, antigen injected
T4 construct: also called Cyno TIM3
T4 sequence: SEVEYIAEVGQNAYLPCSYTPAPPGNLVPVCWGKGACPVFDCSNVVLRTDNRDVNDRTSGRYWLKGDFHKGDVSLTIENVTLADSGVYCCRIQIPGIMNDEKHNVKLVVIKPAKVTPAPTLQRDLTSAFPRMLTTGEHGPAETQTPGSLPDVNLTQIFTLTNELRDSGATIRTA

human TIM3 (soluble) = biological target: T5, human TIM3 (soluble) (human, UniProt Q8TDQ0 22-202); test: as above
T5 construct: also called Biotinylated human TIM3
T5 sequence: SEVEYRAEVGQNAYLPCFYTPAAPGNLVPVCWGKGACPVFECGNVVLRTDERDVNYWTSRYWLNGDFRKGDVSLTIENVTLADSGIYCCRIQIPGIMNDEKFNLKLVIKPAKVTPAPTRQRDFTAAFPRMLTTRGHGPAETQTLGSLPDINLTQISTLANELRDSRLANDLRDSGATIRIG

[4] = biological target: T6, human PD-1 antigen (soluble) (human, UniProt Q15116 25-170); test: as above
T6 construct: also called hu PD1; Biotinylated human PD-1

cynomolgus PD-1 = biological target: T7, cynomolgus PD-1 (cynomolgus, UniProt B0LAJ3 25-170); test: as above
T7 construct: also called cyno PD1

[5] = biological target: T2, human PD-1 expressed on cells; test: flow cytometry, HumanPD1 CHO cells, x axis hIgG1TM mAb (nM)
[6] = biological target: T8, CTLA-4-Fc (human recombinant protein, R&D Systems) (human, UniProt P16410 37-162); test: Octet, same tip after PDL1-His and bispecific, then CTLA-4-Fc (100 nM per paragraph 296): concurrent binding
T8 construct: also called CTLA-4-Fc antigen; not shown: Fc part of the bought fusion
T8 sequence: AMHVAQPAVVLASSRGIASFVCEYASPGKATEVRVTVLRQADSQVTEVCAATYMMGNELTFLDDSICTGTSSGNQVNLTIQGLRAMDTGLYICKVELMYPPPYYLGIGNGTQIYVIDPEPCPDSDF

T6 sequence (Q15116 25-170 limits assumed): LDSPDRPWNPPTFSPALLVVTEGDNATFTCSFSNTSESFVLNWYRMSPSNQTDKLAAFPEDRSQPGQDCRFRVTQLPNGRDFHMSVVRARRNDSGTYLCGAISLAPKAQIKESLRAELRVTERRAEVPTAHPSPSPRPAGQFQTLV
T7 sequence (B0LAJ3 entry or part of it limits assumed): as the sequence (Q15116 25-170 limits assumed) above, with D2E, P10A, V19L, T35A, Q75R, T144A counted along it
T2 sequence (Q15116 25-288 limits assumed): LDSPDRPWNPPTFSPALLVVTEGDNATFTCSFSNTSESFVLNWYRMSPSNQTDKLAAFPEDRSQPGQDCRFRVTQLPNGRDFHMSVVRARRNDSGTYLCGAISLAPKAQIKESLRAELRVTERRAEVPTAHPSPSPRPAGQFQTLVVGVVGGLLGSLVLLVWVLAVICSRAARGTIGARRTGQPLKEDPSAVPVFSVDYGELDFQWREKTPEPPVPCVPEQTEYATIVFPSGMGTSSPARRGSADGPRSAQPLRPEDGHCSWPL

B1: PD-1(LO115)/OX40 BiS2 mAb (bispecific antibody, human IgG4 S228P, kappa)
heavy: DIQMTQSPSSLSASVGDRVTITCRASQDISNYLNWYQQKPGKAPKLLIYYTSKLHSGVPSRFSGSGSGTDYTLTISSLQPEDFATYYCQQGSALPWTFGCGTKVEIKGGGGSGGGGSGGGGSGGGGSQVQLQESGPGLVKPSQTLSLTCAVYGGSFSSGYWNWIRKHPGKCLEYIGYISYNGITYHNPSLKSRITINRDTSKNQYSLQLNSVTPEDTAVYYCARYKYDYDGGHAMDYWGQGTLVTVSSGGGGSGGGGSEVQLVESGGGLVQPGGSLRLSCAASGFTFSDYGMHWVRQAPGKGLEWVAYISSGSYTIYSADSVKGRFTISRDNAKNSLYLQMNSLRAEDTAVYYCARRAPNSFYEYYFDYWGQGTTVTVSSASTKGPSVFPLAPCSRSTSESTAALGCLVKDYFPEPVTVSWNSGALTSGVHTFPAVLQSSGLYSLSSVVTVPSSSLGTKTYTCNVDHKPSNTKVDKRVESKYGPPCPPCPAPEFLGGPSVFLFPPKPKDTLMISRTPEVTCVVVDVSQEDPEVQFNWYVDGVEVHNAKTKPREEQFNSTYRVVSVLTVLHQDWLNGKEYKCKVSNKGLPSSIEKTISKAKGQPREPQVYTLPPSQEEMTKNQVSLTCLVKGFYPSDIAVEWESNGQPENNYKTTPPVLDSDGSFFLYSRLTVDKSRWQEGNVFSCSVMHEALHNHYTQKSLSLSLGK
light: QIVLTQSPATLSLSPGERATLSCSASSKHTNLYWSRHMYWYQQKPGQAPRLLIYLTSNRATGIPARFSGSGSGTDFTLTISSLEPEDFAVYYCQQWSSNPFTFGQGTKLEIKRTVAAPSVFIFPPSDEQLKSGTASVVCLLNNFYPREAKVQWKVDNALQSGNSQESVTEQDSKDSTYSLSSTLTLSKADYEKHKVYACEVTHQGLSSPVTKSFNRGEC
OX40 reporter assay, EC50 (relative light units) [1]: ~2 nM | PD-1/PD-L1 reporter assay, EC50 (relative light units) [2]: ~1 nM

B2: Bis5 PD-1/CTLA-4 (bispecific antibody, human IgG4 S228P, kappa)
heavy: EVQLVESGGGLVQPGGSLRLSCAASGFTFSDYGMHWVRQAPGKGLEWVAYISSGSYTIYSADSVKGRFTISRDNAKNSLYLQMNSLRAEDTAVYYCARRAPNSFYEYYFDYWGQGTTVTVSSASTKGPSVFPLAPCSRSTSESTAALGCLVKDYFPEPVTVSWNSGALTSGVHTFPAVLQSSGLYSLSSVVTVPSSSLGTKTYTCNVDHKPSNTKVDKRVESKYGPPCPPCPAPEFLGGPSVFLFPPKPKDTLMISRTPEVTCVVVDVSQEDPEVQFNWYVDGVEVHNAKTKPREEQFNSTYRVVSVLTVLHQDWLNGKEYKCKVSNKGLPSSIEKTISKAKGQPREPQVYTLPPSQEEMTKNQVSLTCLVKGFYPSDIAVEWESNGGGGSGGGGSDIQMTQSPSSLSASVGDRVTITCRASQSINSYLDWYQQKPGKAPKLLIYAASSLQSGVPSRFSGSGSGTDFTLTISSLQPEDFATYYCQQYYSTPFTFGCGTKVEIKGGGGSGGGGSGGGGSGGGGSQVQLVESGGGVVQPGRSLRLSCAASGFTFSSYGMHWVRQAPGKCLEWVAVIWYDGSNKYYADSVKGRFTISRDNSKNTLYLQMNSLRAEDTAVYYCARDPRGATLYYYYYGMDVWGQGTTVTVSSGGGGSGGGGSGQPENNYKTTPPVLDSDGSFFLYSRLTVDKSRWQEGNVFSCSVMHEALHNHYTQKSLSLSLGK
light: B1 light
fold decrease in CTLA-4 reporter gene assay, potency [3]: ~3 fold

B3: PD-1(LO115)/TIM3(O13-1) DuetMab (bispecific antibody, human IgG1, kappa, lambda)
heavy 1: EVQLVESGGGLVQPGGSLRLSCAASGFTFSDYGMHWVRQAPGKGLEWVAYISSGSYTIYSADSVKGRFTISRDNAKNSLYLQMNSLRAEDTAVYYCARRAPNSFYEYYFDYWGQGTTVTVSSASTKGPSVFPLAPSSKSTSGGTAALGCLVKDYFPEPVTVSWNSGALTSGVHTFPAVLQSSGLYSLSSVVTVPSSSLGTQTYICNVNHKPSNTKVDKRVEPKSCDKTHTCPPCPAPEFEGGPSVFLFPPKPKDTLMISRTPEVTCVVVDVSHEDPEVKFNWYVDGVEVHNAKTKPREEQYNSTYRVVSVLTVLHQDWLNGKEYKCKVSNKALPASIEKTISKAKGQPREPQVCTLPPSREEMTKNQVSLSCAVKGFYPSDIAVEWESNGQPENNYKTTPPVLDSDGSFFLVSKLTVDKSRWQQGNVFSCSVMHEALHNHYTQKSLSLSPGK
light 1: B1 light
heavy 2: not shown
light 2: SYVLTQPPSVSVAPGKTARITCGGDNIGGKSVHWYQQKPGQAPVLVIYYDSDRPSGIPERFSGSNSGNTATLTISRVEAGDEADYYCQVLDRRSDHFLFGGGTKLTVLGQPKAAPSVTLFPPCSEELQANKATLVCLISDFYPGAVTVAWKADSSPVKAGVETTTPSKQSNNKYAASSYLSLTPEQWKSHRSYSCQVTHEGSTVEKTVAPTEVS
notes: also called PD-1/TIM3 DuetMab
Kd (cynomolgus TIM3): 25.6 nM | koff (cynomolgus TIM3): 0.0761 s⁻¹ | kon (cynomolgus TIM3): 2.98e+06 M⁻¹ s⁻¹ | Kd (human TIM3 (soluble)): 4.15 nM | koff (human TIM3 (soluble)): 0.00813 s⁻¹ | kon (human TIM3 (soluble)): 1.96e+06 M⁻¹ s⁻¹ | Kd [4]: 0.81 nM | koff [4]: 0.000236 s⁻¹ | kon [4]: 295000 M⁻¹ s⁻¹ | Kd (cynomolgus PD-1): 0.44 nM | koff (cynomolgus PD-1): 0.000215 s⁻¹ | kon (cynomolgus PD-1): 490000 M⁻¹ s⁻¹

B4: BiS3 PD-1(LO115)/TIM3(O13-1) (bispecific antibody, human IgG1, kappa)
heavy: EVQLVESGGGLVQPGGSLRLSCAASGFTFSDYGMHWVRQAPGKGLEWVAYISSGSYTIYSADSVKGRFTISRDNAKNSLYLQMNSLRAEDTAVYYCARRAPNSFYEYYFDYWGQGTTVTVSSASTKGPSVFPLAPSSKSTSGGTAALGCLVKDYFPEPVTVSWNSGALTSGVHTFPAVLQSSGLYSLSSVVTVPSSSLGTQTYICNVNHKPSNTKVDKRVEPKSCDKTHTCPPCPAPEFEGGPSVFLFPPKPKDTLMISRTPEVTCVVVDVSHEDPEVKFNWYVDGVEVHNAKTKPREEQYNSTYRVVSVLTVLHQDWLNGKEYKCKVSNKALPASIEKTISKAKGQPREPQVYTLPPSREEMTKNQVSLTCLVKGFYPSDIAVEWESNGQPENNYKTTPPVLDSDGSFFLYSKLTVDKSRWQQGNVFSCSVMHEALHNHYTQKSLSLSPGKGGGGSGGGGSEVQLLESGGGLVQPGGSLRLSCAASGFTFSSYAMSWVRQAPGKCLEWVSAISGSGGSTYYADSVKGRFTISRDNSKNTLYLQMNSLRAEDTAVYYCARGSYGTYYGNYFEYWGQGTLVTVSSGGGGSGGGGSGGGGSGGGGSSYVLTQPPSVSVAPGKTARITCGGDNIGGKSVHWYQQKPGQAPVLVIYYDSDRPSGIPERFSGSNSGNTATLTISRVEAGDEADYYCQVLDRRSDHFLFGCGTKLTVL
light: B1 light
notes: also called PD-1/TIM3 BiS3
EC50 (read off the curve) [5]: ~4 nM

B5: Bis2 PD-L1/CTLA-4 (bispecific antibody, human IgG4 S228P, kappa)
heavy: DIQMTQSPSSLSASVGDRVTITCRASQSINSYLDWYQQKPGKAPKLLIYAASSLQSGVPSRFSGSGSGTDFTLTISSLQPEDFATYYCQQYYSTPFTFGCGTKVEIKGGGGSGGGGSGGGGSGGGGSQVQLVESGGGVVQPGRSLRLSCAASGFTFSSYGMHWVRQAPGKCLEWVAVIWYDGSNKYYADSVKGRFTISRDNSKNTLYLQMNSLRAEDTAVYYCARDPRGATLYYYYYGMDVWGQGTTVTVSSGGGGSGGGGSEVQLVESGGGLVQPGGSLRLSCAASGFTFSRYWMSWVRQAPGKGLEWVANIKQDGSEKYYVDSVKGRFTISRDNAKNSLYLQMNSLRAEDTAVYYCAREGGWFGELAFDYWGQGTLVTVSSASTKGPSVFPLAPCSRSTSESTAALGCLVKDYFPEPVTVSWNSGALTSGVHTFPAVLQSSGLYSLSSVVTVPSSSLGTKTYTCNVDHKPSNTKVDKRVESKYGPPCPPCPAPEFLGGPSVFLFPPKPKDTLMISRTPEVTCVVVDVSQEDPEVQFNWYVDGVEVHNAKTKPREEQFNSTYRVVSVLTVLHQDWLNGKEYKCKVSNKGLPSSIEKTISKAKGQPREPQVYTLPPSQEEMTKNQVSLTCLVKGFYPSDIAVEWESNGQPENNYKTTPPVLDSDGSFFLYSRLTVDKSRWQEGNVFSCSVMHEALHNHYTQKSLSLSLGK
light: EIVLTQSPGTLSLSPGERATLSCRASQRVSSSYLAWYQQKPGQAPRLLIYDASSRATGIPDRFSGSGSGTDFTLTISRLEPEDFAVYYCQQYGSLPWTFGQGTKVEIKRTVAAPSVFIFPPSDEQLKSGTASVVCLLNNFYPREAKVQWKVDNALQSGNSQESVTEQDSKDSTYSLSSTLTLSKADYEKHKVYACEVTHQGLSSPVTKSFNRGEC
binding result [6]: binds

B6: Bis3 PD-L1/CTLA-4 (bispecific antibody, human IgG4 S228P, kappa)
heavy: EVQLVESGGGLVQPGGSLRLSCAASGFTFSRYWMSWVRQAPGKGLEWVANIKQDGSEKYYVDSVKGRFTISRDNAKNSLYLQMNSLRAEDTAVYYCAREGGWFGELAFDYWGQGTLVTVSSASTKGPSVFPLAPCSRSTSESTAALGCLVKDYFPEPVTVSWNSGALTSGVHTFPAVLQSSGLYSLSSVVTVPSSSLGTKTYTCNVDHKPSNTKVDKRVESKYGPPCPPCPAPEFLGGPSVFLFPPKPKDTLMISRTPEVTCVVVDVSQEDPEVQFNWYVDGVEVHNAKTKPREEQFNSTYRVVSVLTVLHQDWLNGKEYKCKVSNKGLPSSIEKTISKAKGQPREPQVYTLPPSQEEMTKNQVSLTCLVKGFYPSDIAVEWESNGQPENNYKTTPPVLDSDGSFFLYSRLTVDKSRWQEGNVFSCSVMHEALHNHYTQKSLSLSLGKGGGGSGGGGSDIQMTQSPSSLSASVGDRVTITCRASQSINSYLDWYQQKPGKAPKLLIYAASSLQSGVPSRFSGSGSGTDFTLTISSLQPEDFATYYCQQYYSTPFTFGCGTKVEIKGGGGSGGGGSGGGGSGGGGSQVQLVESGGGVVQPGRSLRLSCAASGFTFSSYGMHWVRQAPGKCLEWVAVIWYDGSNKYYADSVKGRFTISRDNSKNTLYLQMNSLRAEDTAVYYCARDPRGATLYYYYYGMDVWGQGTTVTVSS
light: B5 light
binding result [6]: binds

B7: Bis5 PD-L1/CTLA-4 (bispecific antibody, human IgG4 S228P, kappa)
heavy: EVQLVESGGGLVQPGGSLRLSCAASGFTFSRYWMSWVRQAPGKGLEWVANIKQDGSEKYYVDSVKGRFTISRDNAKNSLYLQMNSLRAEDTAVYYCAREGGWFGELAFDYWGQGTLVTVSSASTKGPSVFPLAPCSRSTSESTAALGCLVKDYFPEPVTVSWNSGALTSGVHTFPAVLQSSGLYSLSSVVTVPSSSLGTKTYTCNVDHKPSNTKVDKRVESKYGPPCPPCPAPEFLGGPSVFLFPPKPKDTLMISRTPEVTCVVVDVSQEDPEVQFNWYVDGVEVHNAKTKPREEQFNSTYRVVSVLTVLHQDWLNGKEYKCKVSNKGLPSSIEKTISKAKGQPREPQVYTLPPSQEEMTKNQVSLTCLVKGFYPSDIAVEWESNGGGGSGGGGSDIQMTQSPSSLSASVGDRVTITCRASQSINSYLDWYQQKPGKAPKLLIYAASSLQSGVPSRFSGSGSGTDFTLTISSLQPEDFATYYCQQYYSTPFTFGCGTKVEIKGGGGSGGGGSGGGGSGGGGSQVQLVESGGGVVQPGRSLRLSCAASGFTFSSYGMHWVRQAPGKCLEWVAVIWYDGSNKYYADSVKGRFTISRDNSKNTLYLQMNSLRAEDTAVYYCARDPRGATLYYYYYGMDVWGQGTTVTVSSGGGGSGGGGSGQPENNYKTTPPVLDSDGSFFLYSRLTVDKSRWQEGNVFSCSVMHEALHNHYTQKSLSLSLGK
light: B5 light
binding result [6]: binds

B8: LO115 IgG1-TM (antibody, V domains shown)
VH: EVQLVESGGGLVQPGGSLRLSCAASGFTFSDYGMHWVRQAPGKGLEWVAYISSGSYTIYSADSVKGRFTISRDNAKNSLYLQMNSLRAEDTAVYYCARRAPNSFYEYYFDYWGQGTTVTVSS
VL: QIVLTQSPATLSLSPGERATLSCSASSKHTNLYWSRHMYWYQQKPGQAPRLLIYLTSNRATGIPARFSGSGSGTDFTLTISSLEPEDFAVYYCQQWSSNPFTFGQGTKLEIK
notes: also called parental LO115 IgG1
Kd [4]: 0.79 nM | koff [4]: 0.000237 s⁻¹ | kon [4]: 302000 M⁻¹ s⁻¹ | Kd (cynomolgus PD-1): 0.81 nM | koff (cynomolgus PD-1): 0.000238 s⁻¹ | kon (cynomolgus PD-1): 346000 M⁻¹ s⁻¹
